Reference: article doi:10.1101/2020.11.05.369280 (bioRxiv, 2020)

Target: EIIA^Glc (UniProt P69783 2-169)
Assay: SPR + ELISA

Sequence of EIIA^Glc (P69783 2-169): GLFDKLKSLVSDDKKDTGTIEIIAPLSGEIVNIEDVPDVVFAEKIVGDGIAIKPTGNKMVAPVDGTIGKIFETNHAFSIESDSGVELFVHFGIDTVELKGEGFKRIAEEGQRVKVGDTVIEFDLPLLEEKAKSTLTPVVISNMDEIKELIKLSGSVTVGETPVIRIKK

B1: EIIB^Glc (domain or fragment)
chain: EDATEDAKATGTSEMAPALVAAFGGKENITNLDACITRLRVSVADVSKVDQAGLKKLGAAGVVVAGSGVQAIFGTKSDNLKTEMDEYIRN
Kd: > 10 µM
